The text below walks through data of publication PMC8804602 (FEBS Open Bio, 2022).

This series deals with the molecule itself. Kind of series: SEC-MALS; 25 °C, Superdex 200 Increase 10/300 GL, ~2 mg/mL, 100 μL injected, 25 mM Tris-HCl pH 8.0, 150 mM NaCl. (In general: Size exclusion chromatography separates by hydrodynamic size, large species first.)

B1: periplasmic part of MreC (residues 36-367) from Escherichia coli (domain or fragment, E. coli, UniProt P16926 36-367, looked up)
chain: SQIRTYMDTAVSPFYFVSNAPRELLDGVSQTLASRDQLELENRALRQELLLKNSELLMLGQYKQENARLRELLGSPLRQDEQKMVTQVISTVNDPYSDQVVIDKGSVNGVYEGQPVISDKGVVGQVVAVAKLTSRVLLICDATHALPIQVLRNDIRVIAAGNGCTDDLQLEHLPANTDIRVGDVLVTSGLGGRFPEGYPVAVVSSVKLDTQRAYTVIQARPTAGLQRLRYLLLLWGADRNGANPMTPEEVHRVANERLMQMMPQVLPSPDAMGPKLPEPATGIAQPTPQQPATGNAATAPAAPTQPAANRSPQRATPPQSGAQPPARAPGGQ
notes: Cell shape-determining protein MreC, E. coli BL21(DE3) strain, residues 36-367, lacks the N-terminal transmembrane region; holds the coiled coil, two six-stranded beta-barrels and the pro-rich region; the cDNA came from strain BL21(DE3); pET21b usually adds a C-terminal His6 (surmised); About 37 kDa per chain as printed; also called truncated MreC; major periplasmic domain of MreC; source: E. …
The stoichiometry N is a count of units in the complex or per binding partner. Regarding B1, the “stoichiometry N” value came out at 2.
